Columns and labels:
Complement C3b (human) [1] = molecular target: Complement C3b (human) (UniProt P01024); test: ELISA; competition; heparin-binding plates coated with 25 ug/ml human C3b alone; FH fixed at 16 nM with rFHR-5 at 7-221 nM (dimer), 2 h room temperature, 5% BSA, 100 mM NaCl, 50 mM NaOAc, pH 7.3; bound FH detected with monoclonal anti-FH; FH binding without rFHR-5 = 100%
Complement C3b (human) [2] = molecular target: Complement C3b (human) (UniProt P01024); test: ELISA; competition; heparin-binding plates coated with 25 ug/ml human C3b together with 40 ug/ml kidney heparan sulfate; FH fixed at 16 nM with rFHR-5 at 7-221 nM (dimer), 2 h room temperature, 5% BSA, 100 mM NaCl, 50 mM NaOAc, pH 7.3; bound FH detected with monoclonal anti-FH; FH binding without rFHR-5 = 100%

B1: Recombinant complement factor H-related protein 5 (natural protein)
chain: EGTLCDFPKIHHGFLYDEEDYNPFSQVPTGEVFYYSCEYNFVSPSKSFWTRITCTEEGWSPTPKCLRMCSFPFVKNGHSESSGLIHLEGDTVQIICNTGYSLQNNEKNISCVERGWSTPPICSFTKGECHVPILEANVDAQPKKESYKVGDVLKFSCRKNLIRVGSDSVQCYQFGWSPNFPTCKGQVRSCGPPPQLSNGEVKEIRKEEYGHNEVVEYDCNPNFIINGPKKIQCVDGEWTTLPTCVEQVKTCGYIPELEYGYVQPSVPPYQHGVSVEVNCRNEYAMIGNNMITCINGIWTELPMCVATHQLKRCKIAGVNIKTLLKLSGKEFNHNSRIRYRCSDIFRYRHSVCINGKWNPEVDCTEKREQFCPPPPQIPNAQNMTTTVNYQDGEKVAVLCKENYLLPEAKEIVCKDGRWQSLPRCVESTAYCGPPPSINNGDTTSFPLSVYPPGSTVTYRCQSFYKLQGSVTVTCRNKQWSEPPRCLDPCVVSEENMNKNNIQLKWRNDGKLYAKTGDAVEFQCKFPHKAMISSPPFRAICQEGKFEYPICE
percent of FH binding to surface C3b left at a 1:1 molar ratio of rFHR-5 and FH (Complement C3b (human) [1]): 80% | percent of FH binding to surface C3b with kidney HS left at a 1:1 molar ratio of rFHR-5 and FH (Complement C3b (human) [2]): 50%

Reference: publication PMC8313009
